Data on 1 molecule can be found in US6548639 (BIOSTAPRO, dated 2003).

The target of this assay is T1, MAL-Sbi (aa 33-436, SEQ ID NO:3) (Staphylococcus aureus strain 8325-4, UniProt A6QJQ7 33-436).
T1 construct: Expressed in E. coli from pMAL-c2 (BamHI-SalI insert), purified on amylose resin and then on IgG-Sepharose; also called MAL-fusion of protein Sbi; mature full length protein; not shown: its limits and the v
Kind of assay: blot of the purified proteins overlaid with MAL-Sbi, detected with HRP-labelled chicken anti-Sbi.

B1: bovine apolipoprotein H (other)
chain: GRTCPKPDELPFSTVVPLKRTYEPGEQIVFSCQPGYVSRGGIRRFTCPLTGLWPINTLKCMPRVCPFAGILENGTVRYTTFEYPNTISFSCHTGFYLKGASSAKCTEEGKWSPDLPVCAPITCPPPPIPKFASLSVYKPLAGNNSFYGSKAVFKCLPHHAMFGNDTVTCTEHGNWTQLPECREVRCPFPSRPDNGFVNHPANPVLYYKDTATFGCHETYSLDGPEEVECSKFGNWSAQPSCKASCKLSIKRATVIYEGERVAIQNKFKNGMLHGQKVSFFCKHKEKKCSYTEDAQCIDGTIEIPKCFKEHSSLAFWKTDASDVKPC
notes: mature; Serum protein; also called β2-glycoprotein I
Turning to B1, the binding result is recorded as “binds”.
